For the assay, the target named is T1, Flag-tagged FANCJ N734H (human, UniProt Q9BX63 1-1249, N734H).
T1 construct: FANCJ (BRIP1), human, full-length; missense variant found in uterine endometrial carcinoma; source: HEK 293T, transiently transfected, purified (anti-Flag M2 agarose)
T1 sequence (looked up): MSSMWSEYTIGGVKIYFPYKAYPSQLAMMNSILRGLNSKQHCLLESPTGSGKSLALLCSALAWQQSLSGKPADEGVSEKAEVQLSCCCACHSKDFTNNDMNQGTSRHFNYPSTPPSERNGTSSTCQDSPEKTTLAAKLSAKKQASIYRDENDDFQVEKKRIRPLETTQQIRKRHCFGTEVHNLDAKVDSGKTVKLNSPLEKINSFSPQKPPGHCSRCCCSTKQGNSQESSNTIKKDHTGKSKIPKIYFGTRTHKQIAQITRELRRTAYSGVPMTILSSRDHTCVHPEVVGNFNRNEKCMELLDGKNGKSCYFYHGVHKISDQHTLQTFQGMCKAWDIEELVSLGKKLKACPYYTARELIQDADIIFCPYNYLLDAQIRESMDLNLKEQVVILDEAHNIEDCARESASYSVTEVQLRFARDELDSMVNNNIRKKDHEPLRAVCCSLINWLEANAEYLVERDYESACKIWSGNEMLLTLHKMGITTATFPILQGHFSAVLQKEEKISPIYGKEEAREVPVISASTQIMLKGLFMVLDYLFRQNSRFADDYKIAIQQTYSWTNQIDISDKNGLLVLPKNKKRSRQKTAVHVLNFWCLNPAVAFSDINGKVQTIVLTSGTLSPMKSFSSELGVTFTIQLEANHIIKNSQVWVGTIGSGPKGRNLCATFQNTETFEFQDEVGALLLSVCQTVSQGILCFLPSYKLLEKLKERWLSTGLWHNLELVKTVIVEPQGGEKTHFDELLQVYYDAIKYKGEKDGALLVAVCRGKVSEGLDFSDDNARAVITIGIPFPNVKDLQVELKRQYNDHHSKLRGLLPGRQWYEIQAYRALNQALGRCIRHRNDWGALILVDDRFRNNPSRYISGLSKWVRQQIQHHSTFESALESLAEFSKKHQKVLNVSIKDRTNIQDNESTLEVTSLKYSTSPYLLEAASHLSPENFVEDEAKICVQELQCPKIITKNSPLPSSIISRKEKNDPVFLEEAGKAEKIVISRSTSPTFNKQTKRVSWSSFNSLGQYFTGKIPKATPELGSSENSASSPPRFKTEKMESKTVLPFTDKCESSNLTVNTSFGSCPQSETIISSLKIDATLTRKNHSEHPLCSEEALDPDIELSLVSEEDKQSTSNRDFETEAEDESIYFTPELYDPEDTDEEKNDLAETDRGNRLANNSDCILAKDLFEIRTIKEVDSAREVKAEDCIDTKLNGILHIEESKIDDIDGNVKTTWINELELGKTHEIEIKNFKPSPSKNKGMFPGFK
Nature of the assay: pull-down; GST-SepB α-helix bundle (0.5 µg) on Glutathione Sepharose 4B beads, purified Flag-FANCJ (0.5 µg) added; 25 mM Tris-HCl pH 7.5, 150 mM NaCl, 0.1% Triton X-100, 4 °C; washes with 300 mM NaCl, 1% Triton X-100; Western blot. To be noted: both partners purified.

B1: GST-SepB α-helix bundle WT (domain or fragment, human, UniProt O75717 718-824, looked up)
chain: IATEKGQMEEQFWRSVIFHNHLDYLAKNGYEYEESTKNQATKEQQELLMKMLALSCKLEREFRCVELADLMTQNAVNLAIKYASRSRKLILAQKLSELAVEKAAELT
notes: AND-1 (WDHD1), human, α-helix bundle of the SepB domain, amino-acid residues 718-824; Cloned into pGEX-2T; also called GST-SepB α-helix bundle chimeric protein; source: E. coli Rosetta pLysS (DE3), purified (Glutathione Sepharose 4B)
Turning to B1, the binding result is given as “binds”.

(Values after paper PMC10897178, “FANCJ DNA helicase is recruited to the replisome by AND-1 to ensure genome stability” (EMBO Reports, 2024).)
